Source: patent publication US20210171647A1 (WUXI BIOLOGICS SHANGHAI, published 2021)
Changes are numbered by the printed parent chain.

How the values were obtained:
Assay in all cases: ELISA, antibody coated, OX40-ECD.His mutant supernatant; relative to silent alanine substitutions;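 also: captured OX40 mutant protein detected with HRP-labelled anti-His antibody, absorbance read-out, scaled to the mean signal of control mutants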
human OX40-ECD.His A150G = molecular target: T1, human OX40-ECD.His A150G (human, UniProt P43489 29-214)
T1 construct: extracellular domain; not shown: C-terminal His-tag
T1 sequence (looked up): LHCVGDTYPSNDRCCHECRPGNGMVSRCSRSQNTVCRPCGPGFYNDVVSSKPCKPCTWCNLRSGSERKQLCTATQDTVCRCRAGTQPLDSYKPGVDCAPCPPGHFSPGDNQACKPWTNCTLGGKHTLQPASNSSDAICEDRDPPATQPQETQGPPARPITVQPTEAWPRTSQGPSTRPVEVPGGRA

human OX40-ECD.His V76A = molecular target: T2, human OX40-ECD.His V76A (human, UniProt P43489 29-214)
T2 construct: extracellular domain; not shown: C-terminal His-tag
T2 sequence (looked up): T1 sequence (looked up) with V48A, G122A

human OX40-ECD.His G92A = molecular target: T3, human OX40-ECD.His G92A (human, UniProt P43489 29-214)
T3 construct: extracellular domain; not shown: C-terminal His-tag
T3 sequence (looked up): T1 sequence (looked up) with G64A, G122A

human OX40-ECD.His R58A = molecular target: T4, human OX40-ECD.His R58A (human, UniProt P43489 29-214)
T4 construct: extracellular domain; not shown: C-terminal His-tag
T4 sequence (looked up): T1 sequence (looked up) with R30A, G122A

human OX40-ECD.His D137A = molecular target: T5, human OX40-ECD.His D137A (human, UniProt P43489 29-214)
T5 construct: extracellular domain; not shown: C-terminal His-tag
T5 sequence (looked up): T1 sequence (looked up) with D109A, G122A

human OX40-ECD.His D74A = molecular target: T6, human OX40-ECD.His D74A (human, UniProt P43489 29-214)
T6 construct: extracellular domain; not shown: C-terminal His-tag
T6 sequence (looked up): T1 sequence (looked up) with D46A, G122A

human OX40-ECD.His P37A = molecular target: T7, human OX40-ECD.His P37A (human, UniProt P43489 29-214)
T7 construct: extracellular domain; not shown: C-terminal His-tag
T7 sequence (looked up): T1 sequence (looked up) with P9A, G122A

human OX40-ECD.His Q60A = molecular target: T8, human OX40-ECD.His Q60A (human, UniProt P43489 29-214)
T8 construct: extracellular domain; not shown: C-terminal His-tag
T8 sequence (looked up): T1 sequence (looked up) with Q32A, G122A

human OX40-ECD.His A101G = molecular target: T9, human OX40-ECD.His A101G (human, UniProt P43489 29-214)
T9 construct: extracellular domain; not shown: C-terminal His-tag
T9 sequence (looked up): T1 sequence (looked up) with A73G, G122A

human OX40-ECD.His N39A = molecular target: T10, human OX40-ECD.His N39A (human, UniProt P43489 29-214)
T10 construct: extracellular domain; not shown: C-terminal His-tag
T10 sequence (looked up): T1 sequence (looked up) with N11A, G122A

B1: 1.134.9-u1-IgG1L (antibody, V domains shown)
VH: QVQLQESGPGLVKPSGTLSLTCAVSGGSISSYNWWSWVRQPPGKGLEWIGEIYHGGNTNYNPSLKSRVTMSVDNSKNQFSLKLSSVTAADTAVYYCARAPGDWGGSPYFDFWGQGTLVTVSS
VL: SSELTQDPAVSVALGQTVRITCQGDNLRTYYASWYQQKPGQAPILLIYGRNKRPSGIPDRFSGSSSGNTASLTITGAQAEDEAAYYCNSRDSSGNPVVFGGGTKLTVL
notes: fully human IgG1, lambda
- Fold Change (human OX40-ECD.His A150G): 0.96
- Fold Change (human OX40-ECD.His V76A): 1.02
- Fold Change (human OX40-ECD.His G92A): 0.233
- Fold Change (human OX40-ECD.His R58A): 1
- Fold Change (human OX40-ECD.His D137A): 0.851
- Fold Change (human OX40-ECD.His D74A): 0.796
- Fold Change (human OX40-ECD.His P37A): 1.01
- Fold Change (human OX40-ECD.His Q60A): 0.971
- Fold Change (human OX40-ECD.His A101G): 0.881
- Fold Change (human OX40-ECD.His N39A): 0.988
